Laboratory results taken from the supplement of paper PMC10471632, “Protein engineering and iterative multimodule optimization for vitamin B6 production in Escherichia coli” (Nature Communications, 2023).
± gives the standard deviation of the averaged measurements.

B1: library; numbered along this chain (parent)
chain: MAELLLGVNIDHIATLRNARGTAYPDPVQAAFIAEQAGADGITVHLREDRRHITDRDVRILRQTLDTRMNLEMAVTEEMLAIAVETKPHFCCLVPEKRQEVTTEGGLDVAGQRDKMRDACKRLADAGIQVSLFIDADEEQIKAAAEVGAPFIEIHTGCYADAKTDAEQAQELARIAKAATFAASLGLKVNAGHGLTYHNVKAIAAIPEMHELNIGHAIIGRAVMTGLKDAVAEMKRLMLEARG

Variants of: B1
Assay: pyridoxine titer in culture supernatant of strain expressing the PdxJ variant; higher = more PN produced (higher in vivo pathway activity of the PdxJ variant)
Conditions: host strain: E. coli LL006; 48 h; temperature: 37 °C; FM1.4
Method: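 Rosetta-designed single to quadruple mutants of E. coli PdxJ (PNP synthase) were expressed from pRSFDuet-1 in the engineered chassis E. coli LL006 (MG1655 ΔpdxH::pdxST, pta::Eme_pdxP). Strains were grown in 24 deep-well plates in 2 mL FM1.4 glycerol medium at 37 °C and 800 rpm for 48 h. Extracellular pyridoxine (PN) titer was quantified by HPLC with fluorescence detection; two biological replicates, with the WT pdxJ strain (LL137, about 0.5 mg/L) as control.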

Row | Variant | pyridoxine titer [mg/L]
1 | I10L A19C V101L E104T | 0.41 ± 0.019
2 | H12M A23T | 0.58 ± 0.014
3 | V101L E104T A217V | 1.17 ± 0.057
4 | I10L A23T E104T I219C | 3.27 ± 0.22
5 | I10L T22V E104T H155N | 2.5 ± 0.35
6 | I13V H155I L212I | 0.81 ± 0.27
7 | A23T E100I I219G | 8.72 ± 0.52
8 | I10L A23T E104T | 6.49 ± 0.071
9 | V101L T196C L212I | 7.33 ± 0.48
10 | I13V V44L E104T T196C | 0.824 ± 0.7
11 | A14I E104T T196C | 1.69 ± 0.75
12 | I10L A19R T22V A23T | 0.561 ± 0.17
13 | G194C L195I | 0.26
14 | A23Y E104T G194C I218L | 0.22 ± 0.013
15 | E104T G194C T196V I218L | 6.11 ± 7.1
16 | V101L E104T L212I | 0.49 ± 0.028
17 | A19C A23T L212I | 3.68 ± 0.73
18 | V101L T103L L212I | 0.81 ± 0.014
19 | I13V E104T L212I | 6.61 ± 2.6
20 | E104T I218L | 0.75 ± 0.085
21 | I10L T22V E104T | 0.875 ± 0.11
22 | T103L T196C L212I | 0.33

Row | Variant | pyridoxine titer [mg/L]
23 | E100M V101L T196C | 2.12 ± 0.38
24 | G194C N213I I218L | 9.12 ± 0.45
25 | A19Q G21M T103L | 0.49 ± 0.028
26 | V101L T196C | 2.16 ± 0.085
27 | I10L I218L | 2.4 ± 0.35
28 | I10L V101L E104T | 2.46 ± 2
29 | T103L | 3.2 ± 0.14
30 | T22V L212I | 0.55 ± 0.13
31 | T196C I218L | 0.22 ± 0.057
32 | A23T V44I V101L L212I | 8.38 ± 1.2
33 | G7L | 0.9583 ± 0.0052
34 | T103L L212I | 3 ± 0.58
35 | G7M T196C L212I | 6.32 ± 1.8
36 | G7L H155I | 0.72 ± 0.071
37 | E100I V101L T196C A217M | 2 ± 0.12
38 | T103L L212I A217V | 0.903 ± 0.052
39 | I10L V101L E104T I219M | 0.553 ± 0.14
40 | I10L V101L E104T I219W | 1.66 ± 0.26
41 | I10L T103L I218L | 0.29 ± 0.057
42 | A23T A217V | 1.12 ± 0.18
43 | A23T E100I G194Q I219G | 2.67 ± 0.14
44 | I10L T22V E104T I218M | 0.757 ± 0.11

Row | Variant | pyridoxine titer [mg/L]
45 | V101L L212I | 0.72 ± 0.042
46 | N213I | 1.76 ± 0.13
47 | A23T I154L | 1.23 ± 0.099
48 | H12M T196C | 1.02 ± 0.014
49 | I13V E104T T196C I219C | 0.274 ± 0.01
50 | I10L T103L E104T | 8.08 ± 0.54
51 | A19Q E104T | 0.72 ± 0.028
52 | I10L A23Y V101L E104T | 0.246 ± 0.0055
53 | I154L I219G | 1.93
54 | E100I V101L T196C | 0.81 ± 0.21
55 | G21M V44I T196C | 1.94 ± 0.23
56 | V101L | 1.19 ± 0.086
57 | D11C T196C | 0.43 ± 0.028
58 | I10L T22V A23T E100I | 1.17 ± 0.23
59 | A23T E104T I154L | 2.31 ± 0.92
60 | I10L V101L E104T T196V | 6.81 ± 0.15
61 | Y24I I219G | 0.95 ± 0.23
62 | E104T I219G | 2.75 ± 3.3
63 | A23T | 0.981 ± 0.014
64 | I10L E104T | 1.1 ± 0.48
65 | A23T V44I T196R L212I | 3.37 ± 1.5
66 | I10L T22V A23T G194Q | 0.91 ± 0.11

Row | Variant | pyridoxine titer [mg/L]
67 | I10L V101L E104T G194Q | 7.61 ± 0.4
68 | G7L T103L E104T | 7.1 ± 0.35
69 | I10L E104T I218L I219W | 0.561 ± 0.22
70 | I10L T22V A23W E104T | 2.06 ± 0.39
71 | E100I | 0.906 ± 0.17
72 | I13V H155R L212I | 0.22 ± 0.042
73 | I10L A14I V101L | 0.31 ± 0.014
74 | I10L L212I | 1.64 ± 0.24
75 | I13V E104T T196C | 9.62 ± 0.33
76 | A217V I219G | 0.77 ± 0.11
77 | I13V V101L E104T T196C | 1.04 ± 0.83
78 | I13V | 4.14 ± 0.062
79 | V44C G194C N213I I218L | 2.07 ± 0.077
80 | I10L T22V | 6.01 ± 0.81
81 | L212I | 4.92 ± 3.9
82 | A23T V44I T196W L212I | 2.89 ± 0.96
83 | I10L | 2.82 ± 0.43
84 | I13V T103L L212I | 0.43 ± 0.18
85 | I10L T103L | 1.81 ± 0.042
86 | L212I A217V | 0.69 ± 0.042
87 | G21M T103L | 0.63 ± 0.33
